Test results from the supplement of paper PMC10724198.
± gives the standard deviation of the averaged measurements.

System: Saccharomyces cerevisiae
Assay: protein stability index of tFT-peptide fusion (C-terminal peptide) (PSI (0-1 scale)); higher = more stable (slower turnover)
Settings: genetic background: cdc34-1; temperature: 37 C
Procedure: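 MPS profiling in S. cerevisiae of the tFT-X12 degron library: putative degron peptides plus stable controls, 12 aa, fused to the C-terminus of a sfGFP-mCherry timer. Cells are FACS-sorted into 8 mCherry/sfGFP bins and deep-sequenced. PSI runs from 0 (unstable) to 1 (stable). Backgrounds are wild type, das1Δ and doa10Δ at 30 °C, and wild type, das1Δ, cdc34-1 and cdc53-1 at 37 °C; 2-3 technical replicates each.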
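Also: PSI is a weighted mean of sequencing reads over stability bins, variants kept only with over 10 reads, mCherry proximal and sfGFP distal, peptide attached via GGGS linker.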

Sequence	protein stability index
ACGAGFIILLGL	0.641 ± 0.086
ACIFDMMWFWLF	0.692 ± 0.068
ACLLCVCVESRE	0.531 ± 0.045
AELLMLRIFFLF	0.281 ± 0.0063
AFFGIYLICFIV	0.118 ± 0.008
AFRFLAVCVGCG	0.144 ± 0.009
AFRSPLLMLLVL	0.336 ± 0.0057
ALFISLAIWNWS	0.0849 ± 0.024
AMRTIFFPAFVS	0.543 ± 0.033
APGLLPPCLLVV	0.374 ± 0.033
EGREGGGRGEVL	0.455 ± 0.011
FSQGFRSPSECL	0.712 ± 0.03
FVVVVVWVSRGL	0.174 ± 0.0059
GGRREWCRGGGV	0.635 ± 0.11
RWCLVWGGVWGV	0.593 ± 0.03
SSLRATLLIRAV	0.543 ± 0.023
VLLCGRMVVVEW	0.0831 ± 0.0095
WVFYAVRWRTWN	0.254 ± 0.015

Same assay, conditions: genetic background: cdc53-1; temperature: 37 C

Sequence	protein stability index
ACGAGFIILLGL	0.613 ± 0.014
ACIFDMMWFWLF	0.721 ± 0.008
ACLLCVCVESRE	0.575 ± 0.053
AELLMLRIFFLF	0.48 ± 0.036
AFFGIYLICFIV	0.2044 ± 0.00042
AFRFLAVCVGCG	0.158 ± 0.013
AFRSPLLMLLVL	0.381 ± 0.0068
ALFISLAIWNWS	0.154 ± 0.018
AMRTIFFPAFVS	0.708 ± 0.0082
APGLLPPCLLVV	0.387 ± 0.013
EGREGGGRGEVL	0.589 ± 0.04
FSQGFRSPSECL	0.764 ± 0.014
FVVVVVWVSRGL	0.399 ± 0.05
GGRREWCRGGGV	0.746 ± 0.034
RWCLVWGGVWGV	0.68 ± 0.025
SSLRATLLIRAV	0.564 ± 0.011
VLLCGRMVVVEW	0.163 ± 0.0037
WVFYAVRWRTWN	0.44 ± 0.0092

Same assay, conditions: genetic background: das1 deletion; temperature: 30 C

Sequence	protein stability index
ACGAGFIILLGL	0.524 ± 0.022
ACIFDMMWFWLF	0.577 ± 0.034
ACLLCVCVESRE	0.414 ± 0.03
AELLMLRIFFLF	0.333 ± 0.019
AFFGIYLICFIV	0.225 ± 0.024
AFRFLAVCVGCG	0.218 ± 0.02
AFRSPLLMLLVL	0.32 ± 0.028
ALFISLAIWNWS	0.165 ± 0.027
AMRTIFFPAFVS	0.655 ± 0.0093
APGLLPPCLLVV	0.307 ± 0.045
EGREGGGRGEVL	0.471 ± 0.029
FSQGFRSPSECL	0.63 ± 0.016
FVVVVVWVSRGL	0.214 ± 0.036
GGRREWCRGGGV	0.555 ± 0.029
RWCLVWGGVWGV	0.494 ± 0.029
SSLRATLLIRAV	0.44 ± 0.019
VLLCGRMVVVEW	0.163 ± 0.01
WVFYAVRWRTWN	0.311 ± 0.037

Same assay, conditions: genetic background: das1 deletion; temperature: 37 C

Sequence	protein stability index
ACGAGFIILLGL	0.65 ± 0.015
ACIFDMMWFWLF	0.75 ± 0.0093
ACLLCVCVESRE	0.61303 ± 0.00036
AELLMLRIFFLF	0.491 ± 0.022
AFFGIYLICFIV	0.382 ± 0.014
AFRFLAVCVGCG	0.291 ± 0.0069
AFRSPLLMLLVL	0.426 ± 0.01
ALFISLAIWNWS	0.318 ± 0.01
AMRTIFFPAFVS	0.743 ± 0.018
APGLLPPCLLVV	0.458 ± 0.014
EGREGGGRGEVL	0.496 ± 0.03
FSQGFRSPSECL	0.765 ± 0.036
FVVVVVWVSRGL	0.423 ± 0.008
GGRREWCRGGGV	0.695 ± 0.03
RWCLVWGGVWGV	0.674 ± 0.02
SSLRATLLIRAV	0.584 ± 0.0032
VLLCGRMVVVEW	0.143 ± 0.011
WVFYAVRWRTWN	0.54 ± 0.017

Same assay, conditions: genetic background: doa10 deletion; temperature: 30 C

Sequence	protein stability index
ACGAGFIILLGL	0.571 ± 0.033
ACIFDMMWFWLF	0.427 ± 0.02
ACLLCVCVESRE	0.38 ± 0.016
AELLMLRIFFLF	0.091 ± 0.0049
AFFGIYLICFIV	0.1711 ± 0.001
AFRFLAVCVGCG	0.168 ± 0.0081
AFRSPLLMLLVL	0.32 ± 0.0039
ALFISLAIWNWS	0.142 ± 0.011
AMRTIFFPAFVS	0.158 ± 0.014
APGLLPPCLLVV	0.263 ± 0.0047
EGREGGGRGEVL	0.482 ± 0.024
FSQGFRSPSECL	0.647 ± 0.011
FVVVVVWVSRGL	0.172 ± 0.029
GGRREWCRGGGV	0.544 ± 0.0089
RWCLVWGGVWGV	0.486 ± 0.013
SSLRATLLIRAV	0.352 ± 0.025
VLLCGRMVVVEW	0.196 ± 0.032
WVFYAVRWRTWN	0.0632 ± 0.0063

Same assay, conditions: genetic background: wild type; temperature: 30 C

Sequence	protein stability index
ACGAGFIILLGL	0.522 ± 0.019
ACIFDMMWFWLF	0.46 ± 0.02
ACLLCVCVESRE	0.41 ± 0.015
AELLMLRIFFLF	0.0708 ± 0.019
AFFGIYLICFIV	0.125 ± 0.007
AFRFLAVCVGCG	0.205 ± 0.018
AFRSPLLMLLVL	0.262 ± 0.031
ALFISLAIWNWS	0.139 ± 0.0085
AMRTIFFPAFVS	0.157 ± 0.013
APGLLPPCLLVV	0.3 ± 0.02
EGREGGGRGEVL	0.479 ± 0.011
FSQGFRSPSECL	0.655 ± 0.023
FVVVVVWVSRGL	0.196 ± 0.048
GGRREWCRGGGV	0.546 ± 0.015
RWCLVWGGVWGV	0.5 ± 0.017
SSLRATLLIRAV	0.371 ± 0.032
VLLCGRMVVVEW	0.153 ± 0.014
WVFYAVRWRTWN	0.066 ± 0.018

Same assay, conditions: genetic background: wild type; temperature: 37 C

Sequence	protein stability index
ACGAGFIILLGL	0.633 ± 0.008
ACIFDMMWFWLF	0.573 ± 0.006
ACLLCVCVESRE	0.5691 ± 0.0014
AELLMLRIFFLF	0.0944 ± 0.032
AFFGIYLICFIV	0.146 ± 0.013
AFRFLAVCVGCG	0.24 ± 0.0071
AFRSPLLMLLVL	0.354 ± 0.0056
ALFISLAIWNWS	0.2526 ± 0.00054
AMRTIFFPAFVS	0.222 ± 0.0069
APGLLPPCLLVV	0.389 ± 0.0066
EGREGGGRGEVL	0.472 ± 0.013
FSQGFRSPSECL	0.7608 ± 0.0072
FVVVVVWVSRGL	0.383 ± 0.023
GGRREWCRGGGV	0.708 ± 0.03
RWCLVWGGVWGV	0.645 ± 0.011
SSLRATLLIRAV	0.5171 ± 0.0041
VLLCGRMVVVEW	0.132 ± 0.021
WVFYAVRWRTWN	0.061 ± 0.0063

System: Saccharomyces cerevisiae
Assay: as above
Settings: genetic background: wild type; temperature: 30 C

Sequence	protein stability index
ACGAGFIILLGL	0.535 ± 0.077
ACIFDMMWFWLF	0.499 ± 0.032
ACLLCVCVESRE	0.494 ± 0.013
AELLMLRIFFLF	0.132 ± 0.027
AFFGIYLICFIV	0.207 ± 0.073
AFRFLAVCVGCG	0.263 ± 0.068
AFRSPLLMLLVL	0.3468 ± 0.00084
ALFISLAIWNWS	0.232 ± 0.012
AMRTIFFPAFVS	0.28 ± 0.075
WAKRERRNEGRR	0.71 ± 0.011
WCGGGGRGGVAG	0.72 ± 0.047
WCIPEAPVATSR	0.684 ± 0.0083
WCSRRIDWSSAP	0.7318 ± 0.002
WDGWWGGAGVGE	0.695 ± 0.077
WDVGSHRGGFWL	0.713 ± 0.02
WERGGGGRVCGW	0.754 ± 0.02
